Test [1] deals with AausFP2 (His-tag removed with proteinase K, crystallised) (Aequorea cf. australis). The test is described as follows: crystal structure; AausFP2 at 51 mg/ml, hanging drop, 14%-24% PEG 3350 trisodium citrate, 0.2 M sodium chloride, 0.1 M HEPES pH 7.3-8.2; 1 molecule in the asymmetric unit; interfaces analysed with PISA.
The target in test [2] is AausFP1 (His-tag cleaved, crystallised) (Aequorea cf. australis). The test is described as follows: crystal structure; AausFP1 at 40 mg/ml, hanging drop, 0.7-1.3 M trisodium citrate, 0.2 M sodium chloride, 0.1 M Tris pH 6.5-8.0; 4 molecules in the asymmetric unit; interfaces analysed with PISA.

For orientation: stoichiometry N means the number of molecules, sites or subunits per partner or assembly. In the case of “AausFP2 (His-tag removed with proteinase K, crystallised) (natural protein)”, in test [1], the stoichiometry N came out at 2.
On to “AausFP1 (His-tag cleaved, crystallised) (natural protein)”, for which the stoichiometry N in test [2] is 2.
